“And” between values parts separate entries of the source, which are not always exact repeats. Identical values can stand only once.
Assays:
[1] = biological target: HIV-1IIIB gp120/gp41 stably expressed on CHO cells (HIV-1 IIIB); assay: cell-based or functional assay
[2] = biological target: recombinant HIV-1 gp120 from the primary isolate HIV-1JR-FL (HIV-1 JR-FL) (UniProt P20871); assay: modified ELISA, gp120 captured on plate, 50% maximal binding
[3] = biological target: recombinant HIV-1 gp120 from the laboratory-adapted strain HIV-1LAI (HIV-1 LAI) (UniProt P03377); assay: as above

In the case of “CD4-IgG2 chimeric heterotetramer (Fc fusion)”, the IC50 of syncytium inhibition (CHO cells expressing HIV-1IIIB gp120/gp41 with C8166 cells) [1] is reported as 9 nM and 1.81 µg/ml, the Relative Potency (mass), relative to sCD4, syncytium inhibition [1] is reported as 5.1 fold and the Relative Potency (molarity), relative to sCD4, syncytium inhibition [1] is reported as 22.2 fold. The EC50 [2] was 0.64 nM and the EC50 [3] was 1.25 nM.

Source: patent US6451313
